The source of these data is US20210340207A1 (Merck Sharp & Dohme, published 2021).

Positions count from the first letter of the chain named. Names and notes keep the numbering of the source.

First the molecules themselves.
T1: human IL-2Rαβγc (on Kit225-STAT5 reporter cells, NK-92 cells, primary Treg cells) (human, UniProt P01589 22-272; P14784 27-551; P31785 23-369)
T1 sequence (looked up) 1: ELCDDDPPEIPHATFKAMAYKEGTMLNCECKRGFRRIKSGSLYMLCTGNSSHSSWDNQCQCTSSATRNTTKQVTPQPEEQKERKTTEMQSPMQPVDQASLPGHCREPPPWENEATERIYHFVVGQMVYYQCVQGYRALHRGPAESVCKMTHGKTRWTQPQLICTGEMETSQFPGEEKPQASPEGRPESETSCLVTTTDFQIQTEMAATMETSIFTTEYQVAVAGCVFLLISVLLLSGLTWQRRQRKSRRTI
T1 sequence (looked up) 2: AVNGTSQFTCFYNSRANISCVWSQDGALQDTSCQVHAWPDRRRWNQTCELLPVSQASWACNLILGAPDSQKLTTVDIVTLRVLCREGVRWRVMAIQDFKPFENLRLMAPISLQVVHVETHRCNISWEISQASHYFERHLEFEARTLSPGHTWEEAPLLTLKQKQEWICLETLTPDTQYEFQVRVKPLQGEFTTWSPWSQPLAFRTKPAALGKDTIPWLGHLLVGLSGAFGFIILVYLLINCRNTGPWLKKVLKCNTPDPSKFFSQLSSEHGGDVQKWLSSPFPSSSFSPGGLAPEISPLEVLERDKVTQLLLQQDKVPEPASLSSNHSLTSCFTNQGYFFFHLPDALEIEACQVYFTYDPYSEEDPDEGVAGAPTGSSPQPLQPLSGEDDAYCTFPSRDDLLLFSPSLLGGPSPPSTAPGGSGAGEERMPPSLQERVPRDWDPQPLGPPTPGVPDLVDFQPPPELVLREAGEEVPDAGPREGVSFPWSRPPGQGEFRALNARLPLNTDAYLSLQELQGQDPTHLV
T1 sequence (looked up) 3: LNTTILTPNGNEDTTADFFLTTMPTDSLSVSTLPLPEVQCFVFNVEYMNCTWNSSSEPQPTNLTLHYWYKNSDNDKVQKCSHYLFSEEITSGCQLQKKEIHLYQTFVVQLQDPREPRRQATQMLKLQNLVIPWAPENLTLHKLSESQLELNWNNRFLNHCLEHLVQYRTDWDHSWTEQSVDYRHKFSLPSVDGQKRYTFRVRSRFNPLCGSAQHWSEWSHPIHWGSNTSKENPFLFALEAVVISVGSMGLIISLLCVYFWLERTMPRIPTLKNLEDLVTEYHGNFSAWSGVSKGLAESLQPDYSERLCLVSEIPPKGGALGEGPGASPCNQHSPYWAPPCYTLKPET

T2: human IL-2Rβγc (on DERL-7 cells, U2OS IL2RB/IL2RG cells, CD25 knockout Kit225-STAT5 cells, primary CD8+ CTLs) (human, UniProt P14784 27-551; P31785 23-369)
T2 sequence (looked up) 1: T1 sequence (looked up) 2
T2 sequence (looked up) 2: T1 sequence (looked up) 3

T3: Human IL-2Rβ (Table 7B) (human, UniProt P14784 27-239, limits assumed)
T3 sequence (looked up): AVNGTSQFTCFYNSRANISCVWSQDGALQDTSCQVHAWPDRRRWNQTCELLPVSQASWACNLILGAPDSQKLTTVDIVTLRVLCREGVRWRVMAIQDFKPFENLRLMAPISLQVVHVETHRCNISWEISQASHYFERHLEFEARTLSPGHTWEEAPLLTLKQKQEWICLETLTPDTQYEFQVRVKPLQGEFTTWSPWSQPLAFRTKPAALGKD

T4: mouse IL-2Rαβγc (on CTLL2-STAT5 reporter cells) (mouse, UniProt P01590 22-268; P16297 27-539; P34902 23-369)
T4 sequence (looked up) 1: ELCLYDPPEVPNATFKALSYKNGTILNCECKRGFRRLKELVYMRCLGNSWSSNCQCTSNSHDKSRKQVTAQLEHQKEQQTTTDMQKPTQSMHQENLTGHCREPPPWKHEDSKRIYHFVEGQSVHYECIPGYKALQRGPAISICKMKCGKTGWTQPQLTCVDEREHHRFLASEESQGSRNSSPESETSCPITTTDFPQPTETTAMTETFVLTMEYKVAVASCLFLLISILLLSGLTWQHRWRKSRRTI
T4 sequence (looked up) 2: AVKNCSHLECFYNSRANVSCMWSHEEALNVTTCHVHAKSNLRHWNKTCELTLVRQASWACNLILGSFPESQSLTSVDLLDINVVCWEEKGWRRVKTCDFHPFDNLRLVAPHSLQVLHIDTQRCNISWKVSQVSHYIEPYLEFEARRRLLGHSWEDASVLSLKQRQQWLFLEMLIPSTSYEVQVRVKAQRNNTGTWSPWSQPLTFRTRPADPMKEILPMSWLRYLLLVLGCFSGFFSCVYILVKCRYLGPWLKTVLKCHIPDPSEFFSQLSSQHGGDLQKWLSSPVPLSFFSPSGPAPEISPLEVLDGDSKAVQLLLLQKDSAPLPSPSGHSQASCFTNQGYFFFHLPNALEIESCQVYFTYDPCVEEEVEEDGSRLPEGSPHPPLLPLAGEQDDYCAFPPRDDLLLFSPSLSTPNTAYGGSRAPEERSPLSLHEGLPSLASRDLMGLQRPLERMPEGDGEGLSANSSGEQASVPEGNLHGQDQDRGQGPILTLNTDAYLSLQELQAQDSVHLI
T4 sequence (looked up) 3: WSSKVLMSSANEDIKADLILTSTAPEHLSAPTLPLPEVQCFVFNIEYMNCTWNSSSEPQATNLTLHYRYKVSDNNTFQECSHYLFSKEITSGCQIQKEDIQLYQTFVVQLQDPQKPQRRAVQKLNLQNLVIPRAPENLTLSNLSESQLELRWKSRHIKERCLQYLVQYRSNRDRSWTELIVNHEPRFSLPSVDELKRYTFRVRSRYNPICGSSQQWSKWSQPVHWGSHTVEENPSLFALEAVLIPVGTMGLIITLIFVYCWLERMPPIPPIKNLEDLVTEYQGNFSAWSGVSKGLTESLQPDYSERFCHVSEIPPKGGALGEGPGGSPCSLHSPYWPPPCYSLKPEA

B1: Ald-6HIS_F41K/E60T (ligand)
chain: PTSSSTKKTQLQLEHLLLDLQMILNGINNYKNPKLTRMLTKKFYMPKKATELKHLQCLETELKPLEEVLNLAQSKNFHLRPRDLISNINVIVLELKGSETTFMCEYADETATIVEFLNRWITFSQSIISTLTGGSHHHHHH
B2: Ald-6HIS_R37A/F41K (ligand)
chain: B1 chain with R37A, T60E
B3: Ald-6HIS_R37A/F41K/E60T (ligand)
chain: B1 chain with R37A
B4: Ald-6HIS_R37A/E60T (ligand)
chain: B1 chain with R37A, K41F
B5: Ald-6HIS_R37A/T40D/E60T (ligand)
chain: B1 chain with R37A, T40D, K41F
B6: Ald-6HIS_R37A/T40D (ligand)
chain: B1 chain with R37A, T40D, K41F, T60E
B7: Ald-6HIS_T40D/E60T (ligand)
chain: B1 chain with T40D, K41F
B8: Ald-6HIS_R37A/T40D/F41K (ligand)
chain: B1 chain with R37A, T40D, T60E
B9: Ald_F41/Y44A/l71G* (ligand)
chain: B1 chain with K41A, Y44A, T60E, L71G

The first experiment deals with T1, human IL-2Rαβγc (on Kit225-STAT5 …). Description: cell-based or functional assay.
Turning to B1, the “NK-92 EC50 Fold Change” value is 11.4 fold and the “NK-92 cell assay EC50” value stood at 0.079 nM.
Turning to B2, the “NK-92 EC50 Fold Change” value was 7.31 fold and the “NK-92 cell assay EC50” value came out at 0.051 nM.
With B3, the “NK-92 EC50 Fold Change” value is 9.03 fold and the “NK-92 cell assay EC50” value was 0.063 nM.
Taken in the same sequence, the figures for B4 were 4.46 fold and 0.031 nM.
The corresponding values for B5 are 11 fold and 0.076 nM.
Consider B6, for which the “NK-92 EC50 Fold Change” value came out at 2.06 fold and the “NK-92 cell assay EC50” value is 0.014 nM.
Taken in the same sequence, the figures for B7 were 4.61 fold and 0.032 nM.
Taken in the same sequence, the figures for B8 were 3.73 fold and 0.026 nM.

The target of another experiment is T2, human IL-2Rβγc (on DERL-7 cells, U2OS …). Description: cell-based or functional assay.
Take B1: the “U2OS B/BG EC50 Fold Change” value stood at 3.15 fold and the “U2OS B/BG bridging cell assay EC50” value came to 0.502 nM.
As to B2, the “U2OS B/BG EC50 Fold Change” value stood at 2.32 fold and the “U2OS B/BG bridging cell assay EC50” value worked out at 0.37 nM.
Taken in the same sequence, the figures for B3 were 2.04 fold and 0.325 nM.
Taken in the same sequence, the figures for B4 were 3.28 fold and 0.522 nM.
For B5, the “U2OS B/BG EC50 Fold Change” value turned out to be 2.53 fold and the “U2OS B/BG bridging cell assay EC50” value is 0.403 nM.
Taken in the same sequence, the figures for B6 were 2.83 fold and 0.451 nM.
Take B7: the “U2OS B/BG EC50 Fold Change” value was 3.09 fold and the “U2OS B/BG bridging cell assay EC50” value came to 0.492 nM.
Taken in the same sequence, the figures for B8 were 1.16 fold and 0.185 nM.

The target in a further experiment is T3, Human IL-2Rβ (Table 7B). Kind of experiment: SPR (Biacore T200). In general terms: Surface plasmon resonance follows binding to a sensor surface in real time, without labels.
As usually defined, the Kd is the constant that tells how readily two partners part at equilibrium. Broadly, the koff is the rate constant with which the complex falls apart. A higher koff goes with a short-lived complex. What is called kon is the rate constant with which the complex forms. A high value points to fast association. With B1, the dissociation constant Kd was 1100 nM, the off-rate constant (koff) stood at 0.47 s⁻¹ and the kon amounted to 440000 M⁻¹ s⁻¹.
B2 yielded an equilibrium dissociation constant (Kd) of 1000 nM, an off-rate constant (koff) of 0.3 s⁻¹ and a kon of 300000 M⁻¹ s⁻¹.
B3 had a Kd of 860 nM and an off-rate constant (koff) of 0.013 s⁻¹.
For the molecule B4, the Kd is 1100 nM, the koff is 0.082 s⁻¹ and the on-rate constant (kon) was 75000 M⁻¹ s⁻¹.
The corresponding values for B5 are 1900 nM, 0.42 s⁻¹ and 220000 M⁻¹ s⁻¹.
The corresponding values for B9 are 770 nM, 0.3 s⁻¹ and 390000 M⁻¹ s⁻¹.
Taken in the same sequence, the figures for B6 were 730 nM, 0.25 s⁻¹ and 340000 M⁻¹ s⁻¹.
B7 had a dissociation constant (Kd) of 990 nM, a dissociation rate constant (koff) of 0.36 s⁻¹ and a kon of 360000 M⁻¹ s⁻¹.
In turn, B8 displayed a Kd of 590 nM, a koff of 0.24 s⁻¹ and an association rate constant (kon) of 410000 M⁻¹ s⁻¹.

A further experiment concerns the target T4, mouse IL-2Rαβγc (on CTLL2-STAT5 …). Kind of experiment: cell-based or functional assay.
Turning to B1, the “STAT5-CTLL2 EC50” value amounted to 103 nM and the “STAT5-CTLL2 EC50 Fold Change” value was determined as 11400 fold.
Take B2: the “STAT5-CTLL2 EC50” value was 11 nM and the “STAT5-CTLL2 EC50 Fold Change” value stood at 1220 fold.
Taken in the same sequence, the figures for B3 were 95.2 nM and 10500 fold.
The corresponding values for B4 are 0.129 nM and 14.3 fold.
Taken in the same sequence, the figures for B5 were 6.22 nM and 689 fold.
As to B6, the “STAT5-CTLL2 EC50” value was 0.101 nM and the “STAT5-CTLL2 EC50 Fold Change” value is 11.2 fold.
Taken in the same sequence, the figures for B7 were 2.2 nM and 244 fold.
On to B8, for which the “STAT5-CTLL2 EC50” value came out at 12.7 nM and the “STAT5-CTLL2 EC50 Fold Change” value was 1400 fold.

In a further experiment the target is T2, human IL-2Rβγc (on DERL-7 cells, U2OS …). Kind of experiment: cell-based or functional assay. This is another data set of the same source.
Take B1: the “DERL7 EC50 Fold Change” value worked out at 2.01 fold and the “DERL7 cell assay EC50” value stood at 0.036 nM.
Turning to B2, the “DERL7 EC50 Fold Change” value is 1.18 fold and the “DERL7 cell assay EC50” value worked out at 0.021 nM.
For the molecule B3, the “DERL7 EC50 Fold Change” value worked out at 1.46 fold and the “DERL7 cell assay EC50” value is 0.026 nM.
Taken in the same sequence, the figures for B4 were 2.14 fold and 0.038 nM.
On to B5, for which the “DERL7 EC50 Fold Change” value is 2.41 fold and the “DERL7 cell assay EC50” value stood at 0.043 nM.
The corresponding values for B6 are 1.31 fold and 0.023 nM.
The corresponding values for B7 are 1.55 fold and 0.028 nM.
Taken in the same sequence, the figures for B8 were 0.71 fold and 0.013 nM.
